Laboratory results published in patent US20250304655A1 (CSL BEHRING, published 2025).

How the values were obtained:
Assay in all cases: BLI, LRP1 cluster III immobilised, analyte 2000-31.25 nM, kinetic fit 1:1
[1] = biological target: T1, heme:Hx (plasma derived hemopexin complexed with heme) (UniProt P02790 24-462, limits assumed, heme bound, not covalent)
T1 construct: mature; Heme-loaded plasma-derived hemopexin, analyte in BLI; also called heme complexed plasma derived Hx; heme-hemopexin complex
T1 sequence (looked up): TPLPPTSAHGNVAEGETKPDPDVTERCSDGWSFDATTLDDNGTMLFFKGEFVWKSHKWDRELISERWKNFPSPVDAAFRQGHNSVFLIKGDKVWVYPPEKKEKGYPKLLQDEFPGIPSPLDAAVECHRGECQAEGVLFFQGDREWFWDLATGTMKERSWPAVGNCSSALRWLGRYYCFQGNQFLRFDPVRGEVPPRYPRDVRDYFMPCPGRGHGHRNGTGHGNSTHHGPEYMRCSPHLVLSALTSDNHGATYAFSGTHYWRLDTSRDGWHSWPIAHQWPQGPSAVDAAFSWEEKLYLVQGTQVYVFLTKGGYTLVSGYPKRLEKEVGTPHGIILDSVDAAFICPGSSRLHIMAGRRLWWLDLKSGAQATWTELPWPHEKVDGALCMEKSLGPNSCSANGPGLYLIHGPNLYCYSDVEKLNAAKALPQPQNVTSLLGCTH
Method: (§1) Streptavidin pre-coated biosensors (Cat No: 18-5019, FortéBio) were used. […] A reference control was included in every experiment (sensor loaded with ligand without analyte). Data was acquired on an OctetRED96 (FortéBio) at 30° C. with the following settings:
(§2) Since the full length receptor is challenging to express recombiantly, we immobilized only a fragment of CD91/LRP1 (cluster III).

[2] = biological target: T2, heme:Hx-Hp complex (human, UniProt P02790 24-462; P00738 162-406, heme bound, not covalent)
T2 construct: The Hx-Hp fusion protein loaded with heme
Method: as §1, §2

[3] = biological target: T3, HuHemopexin-HuHaptoglobin2FS(148-406)-8His (human, UniProt P02790 24-462; P00738 162-406)
T3 construct: Cleaved by co-expressed C1r-LP; the two chains are held by the inter-chain disulphide; Uncomplexed form (no heme, no Hb)
Method: as §1, §2

T2 sequence (P00738 other isoform, or with tags, fused parts or gaps): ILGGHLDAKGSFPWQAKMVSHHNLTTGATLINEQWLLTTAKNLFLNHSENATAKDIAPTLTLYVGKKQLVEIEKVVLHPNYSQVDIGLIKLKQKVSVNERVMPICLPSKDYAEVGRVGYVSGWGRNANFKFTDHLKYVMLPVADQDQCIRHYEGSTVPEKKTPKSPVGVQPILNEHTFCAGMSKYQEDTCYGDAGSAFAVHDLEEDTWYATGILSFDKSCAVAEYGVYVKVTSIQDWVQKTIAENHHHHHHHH
T3 sequence (P00738 other isoform, or with tags, fused parts or gaps): as above

B1: biotinylated LRP1 Cluster III (receptor)
chain: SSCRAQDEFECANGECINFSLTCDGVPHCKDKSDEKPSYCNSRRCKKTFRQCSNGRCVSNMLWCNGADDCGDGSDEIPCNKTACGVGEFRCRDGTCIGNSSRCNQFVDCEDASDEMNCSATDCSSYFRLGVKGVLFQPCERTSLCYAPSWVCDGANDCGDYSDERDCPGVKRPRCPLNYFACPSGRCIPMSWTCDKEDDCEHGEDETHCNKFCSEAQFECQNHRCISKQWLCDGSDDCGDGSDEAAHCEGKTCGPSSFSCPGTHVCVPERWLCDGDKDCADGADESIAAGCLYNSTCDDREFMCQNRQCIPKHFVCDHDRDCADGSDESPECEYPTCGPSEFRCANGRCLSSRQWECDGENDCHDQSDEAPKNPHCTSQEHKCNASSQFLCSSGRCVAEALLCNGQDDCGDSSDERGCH
modifications: biotinylated
notes: Detected with an anti-His antibody, so it appears to carry a His tag; also called LRP1/CD91 domain 3; CD91/LRP1 (cluster III)
[1]
  Kd: 392 nM
  koff: 0.068 s⁻¹
  kon: 170000 M⁻¹ s⁻¹
[2]
  Kd: 480 nM
  koff: 0.044 s⁻¹
  kon: 91000 M⁻¹ s⁻¹
[3]
  Kd: 2700 nM
  koff: 0.039 s⁻¹
  kon: 15000 M⁻¹ s⁻¹
